Results on one substance are retold here after patent publication US20080044424.

In this data set the target is T1, human PAR1 (AA #27-102)/thioredoxin fusion protein (UniProt P25116).
T1 sequence: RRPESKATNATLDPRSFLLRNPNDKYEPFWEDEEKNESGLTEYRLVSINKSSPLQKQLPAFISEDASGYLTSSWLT

Consider thrombin, for which the proteolytic cleavage result is on record as “The PAR1/thioredoxin was cleaved to completion with thrombin”.
